Here are results for one molecule from paper PMC2570342 (Cell, 2008).

As a reminder, the IC50 is the midpoint of a concentration-inhibition curve. Higher therefore signals lower potency.

This test addresses actin filaments (F-actin) (UniProt P68135 1-377). Description: co-sedimentation.

B1: Coronin 1B (recombinant) (natural protein)
chain: MSFRKVVRQSKFRHVFGQPVKNDQCYEDIRVSRVTWDSTFCAVNPKFLAVIVEASGGGAFLVLPLSKTGRIDKAYPTVCGHTGPVLDIDWCPHNDEVIASGSEDCTVMVWQIPENGLTSPLTEPVVVLEGHTKRVGIIAWHPTARNVLLSAGCDNVVLIWNVGTAEELYRLDSLHPDLIYNVSWNHNGSLFCSACKDKSVRIIDPRRGTLVAEREKAHEGARPMRAIFLADGKVFTTGFSRMSERQLALWDPENLEEPMALQELDSSNGALLPFYDPDTSVVYVCGKGDSSIRYFEITEEPPYIHFLNTFTSKEPQRGMGSMPKRGLEVSKCEIARFYKLHERKCEPIVMTVPRKSDLFQDDLYPDTAGPEAALEAEEWVSGRDADPILISLREAYVPSKQRDLKISRRNVLSDSRPAMAPGSSHLGAPASTTTAADATPSGSLARAGEAGKLEEVMQELRALRALVKEQGDRICRLEEQLGRMENGDA
The molecule B1 returned an IC50 of 74 nM.
